Laboratory results reported in PMC5934628.
Where a chain is given by its changes, count along the chain named. Read-outs that look alike come from different tables or passages of the source.

T1: VAL1-B3 wt (C-terminal His6) (Arabidopsis thaliana, UniProt Q8W4L5 288-397)
T1 sequence: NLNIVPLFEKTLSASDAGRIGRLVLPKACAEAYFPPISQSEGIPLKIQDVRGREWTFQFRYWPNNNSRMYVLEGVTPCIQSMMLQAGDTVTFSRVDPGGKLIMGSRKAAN

T2: VAL1-B3 N352A (Arabidopsis thaliana, UniProt Q8W4L5 288-397, N352A)
T2 sequence: T1 sequence with N65A

T3: VAL1-B3 I307A (Arabidopsis thaliana, UniProt Q8W4L5 288-397, I307A)
T3 sequence: T1 sequence with I20A

T4: VAL1-B3 Q345R (Arabidopsis thaliana, UniProt Q8W4L5 288-397, Q345R)
T4 sequence: T1 sequence with Q58R

T5: VAL1-B3 R306A (Arabidopsis thaliana, UniProt Q8W4L5 288-397, R306A)
T5 sequence: T1 sequence with R19A

B1: 12/12_2T (dsDNA)
DNA 1: CGGTTCATGGCT
DNA 2: AGCCATGAACCG
B2: 12/12_6A (dsDNA)
DNA 1: CGGTGCATAGCT
DNA 2: AGCTATGCACCG
B3: 12/12_1A (dsDNA)
DNA 1: CGGAGCATGGCT
DNA 2: AGCCATGCTCCG
B4: 12/12_1C (dsDNA)
DNA 1: CGGCGCATGGCT
DNA 2: AGCCATGCGCCG
B5: 12/12_4T (dsDNA)
DNA 1: CGGTGCTTGGCT
DNA 2: AGCCAAGCACCG
B6: 12/12_6C (dsDNA)
DNA 1: CGGTGCATCGCT
DNA 2: AGCGATGCACCG
B7: 12/12_3T (dsDNA)
DNA 1: CGGTGTATGGCT
DNA 2: AGCCATACACCG
B8: 12/12_2A (dsDNA)
DNA 1: CGGTACATGGCT
DNA 2: AGCCATGTACCG
B9: 12/12SP_2 (dsDNA)
DNA 1: CGCTGCATGCCT
DNA 2: AGGCATGCAGCG
B10: 12/12_3A (dsDNA)
DNA 1: CGGTGAATGGCT
DNA 2: AGCCATTCACCG
B11: 12/12_5A (dsDNA)
DNA 1: CGGTGCAAGGCT
DNA 2: AGCCTTGCACCG
B12: 12/12_5C (dsDNA)
DNA 1: CGGTGCACGGCT
DNA 2: AGCCGTGCACCG
B13: 12/12SP (dsDNA)
DNA 1: CGGTGCATGGCT
DNA 2: AGCCATGCACCG
B14: 12/12_2C (dsDNA)
DNA 1: CGGTCCATGGCT
DNA 2: AGCCATGGACCG
B15: 12/12_6T (dsDNA)
DNA 1: CGGTGCATTGCT
DNA 2: AGCAATGCACCG

Tests used:
Assay in all cases: EMSA
[1] = target: T1, VAL1-B3 wt (C-terminal His6)
[2] = target: T1, VAL1-B3 wt (C-terminal His6); remark: listed apart in the source
[3] = target: T1, VAL1-B3 wt (C-terminal His6); remark: listed apart in the source
VAL1-B3 N352A = target: T2, VAL1-B3 N352A
VAL1-B3 I307A = target: T3, VAL1-B3 I307A
VAL1-B3 Q345R = target: T4, VAL1-B3 Q345R
VAL1-B3 R306A = target: T5, VAL1-B3 R306A

Row | Binder | binding result [1] | further results
1 | B1 | no binding | 
2 | B2 | no binding | 
3 | B3 | no binding | 
4 | B4 | no binding | 
5 | B5 | no binding | 
6 | B6 | no binding | 
7 | B7 | no binding | 
8 | B8 | no binding | 
9 | B9 |  | binding result [2]: binds
10 | B10 | no binding | 
11 | B11 | no binding | 
12 | B12 | no binding | 
13 | B13 |  | Kd [3]: ~3000 nM; binding result (VAL1-B3 N352A): binds; binding result (VAL1-B3 I307A): binds; binding result (VAL1-B3 Q345R): binds; binding result (VAL1-B3 R306A): no binding
14 | B14 | no binding | 
15 | B15 | no binding | 
